What all share (assay type): biochemical
The nature of test [1]: Aminoacylation activity by Lloyd's method (release of pyrophosphates). The conditions noted are these: for Initial velocity of release of pyrophosphates, 3-iodotyrosine / Initial velocity of release of pyrophosphates, Tyrosine: at 37° C.; for Initial velocity of release of pyrophosphates, 3-iodotyrosine: 200 μM 3-iodotyrosine; for Initial velocity of release of pyrophosphates, Tyrosine: 200 μM tyrosine; for relative tyrosine analogue to tyrosine ratio: 3-iodotyrosine versus tyrosine, from Table 4. On the procedure: In the second method, Lloyd's method (Nucleic Acids Research, 23:2886-2892, 1995) was carried out without alteration.
In the second method, the activity was assayed by Lloyd's method (Nucleic Acids Research, 23:2886-2892, 1995). Each enzyme obtained was incubated with 0.4 ml of the buffer B containing 1 mM ATP (Seikagaku Corporation), 100 μM purified crude tyrosyl-tRNA, 200 μM tyrosine or 3-iodotyrosine at 37° C. for 6 min. The aminoacylation activity was represented as concentrations of released phosphate per min.

Test [2] can be described thus: Aminoacylation reaction, simplified Lloyd's method, inorganic phosphate detected with Biomol green. On the set-up: key: ***: the aminoacylation reaction was detected by a microplate reader in the reaction at enzyme concentrations of 50 nM; **: 500 nM; *: 5 μM; the activity is high in the order of *** > ** > * > —. The conditions noted are these: 3-iodotyrosine 1 mM, 37° C. for 4 min. On the procedure: (§1) In the first method, Lloyd's method (Nucleic Acids Research, 23:2886-2892, 1995) where inorganic phosphate produced by pyrophosphatase-drived hydrolysis of pyrophosphate which was one of the reaction products of the aminoacylation reactions was quantified was simplified, and the inorganic phosphate was detected using Biomol green (Funakoshi) to carry out the measurement of the aminoacylation reaction.
(§2) Amino acid concentrations were 200 μM and 1 mM for tyrosine and 3-iodotyrosine, respectively.
(§3) The method where the aminoacylation reaction is measured by quantifying inorganic phosphate produced by pyrophosphatase-drived hydrolysis of pyrophosphate which is one of reaction products of the aminoacylation has been described by Lloyd et al. (Nucleic Acids Research, 23:2886-2892, 1995). In one method of the invention, this method was simplified and the aminoacylation reaction was measured by the detection of inorganic phosphate using Biomol green (Funakoshi). Each enzyme obtained was incubated with 0.05 ml of the buffer B containing 1 mM ATP (Seikagaku Corporation), 30 μM purified crude tyrosyl-tRNA, and 100 μM tyrosine or 0.5 mM 3-iodotyrosine at 37° C. for one hour. To stop the reaction, 0.1 ml of Bio mol green was added. Absorbance of its supernatant was measured at 630 nm.

Test in test [3]: as above
On the set-up: key: ***: the aminoacylation reaction was detected by a microplate reader in the reaction at enzyme concentrations of 50 nM; **: 500 nM; *: 5 μM; the activity is high in the order of *** > ** > * > —. The conditions noted are these: tyrosine 200 μM, 37° C. for 4 min. On the procedure: as §1, §2
(§4) The method where the aminoacylation reaction is measured by quantifying inorganic phosphate produced by pyrophosphatase-drived hydrolysis of pyrophosphate which is one of reaction products of the aminoacylation has been described by Lloyd et al. (Nucleic Acids Research, 23:2886-2892, 1995). In one method of the invention, this method was simplified and the aminoacylation reaction was measured by the detection of inorganic phosphate using Biomol green (Funakoshi). […] To stop the reaction, 0.1 ml of Bio mol green was added. Absorbance of its supernatant was measured at 630 nm.

Test in test [4]: as above
On the set-up: key: ***: the reaction could be detected strongly at 25 nM; **: strongly at 250 nM; *: weakly at 250 nM; the activity is high in the order of *** > ** > * > —. The conditions noted are these: Table 3; tyrosine 200 μM; 37° C. for 4 min. On the procedure:
as §1, §2, §4

Test in test [5]: as above
The conditions noted are these: Table 3; 3-iodotyrosine 1 mM; 37° C. for 4 min. More on the design: key: ***: the reaction could be detected strongly at 25 nM; **: strongly at 250 nM; *: weakly at 250 nM; the activity is high in the order of *** > ** > * > —. The method, then: as §1, §2, §3

Residue numbers refer to the chain shown, from its start.

B1: Wild-type: wild-type tyrosyl-tRNA synthetase of E. coli (SEQ ID NO: 1): position 37 Tyrosine, position 195 Glutamine (protein, listed as Escherichia coli)
chain: MASSNLIKQLQERGLVAQVTDEEALAERLAQGPIALYCGFDPTADSLHLGHLVPLLCLKRFQQAGHKPVALVGGATGLIGDPSFKAAERKLNTEETVQEWVDKIRKQVAPFLDFDCGENSAIAANNYDWFGNMNVLTFLRDIGKHFSVNQMINKEAVKQRLNREDQGISFTEFSYNLLQGYDFACLNKQYGVVLQIGGSDQWGNITSGIDLTRRLHQNQVFGLTVPLITKADGTKFGKTEGGAVWLDPKKTSPYKFYQFWINTADADVYRFLKFFTFMSIEEINALEEEDKNSGKAPRAQYVLAEQVTRLVHGEEGLQAAKRITECLFSGSLSALSEADFEQLAQDGVPMVEMEKGADLMQALVDSELQPSRGQARKTIASNAITINGEKQSDPEYFFKEEDRLFGRFTLLRRGKKNYCLICWK
Consider B1, for which the “Initial velocity of release of pyrophosphates, 3-iodotyrosine” value (shortened to “Initial velocity … 3-iodotyrosine”) in test [1] is less than 0.05 nM PPi/min/nM enzyme. In test [1], the “Initial velocity of release of pyrophosphates, Tyrosine” value is recorded as 400 nM PPi/min/nM enzyme. In addition, the “Aminoacylation activity, 3-iodotyrosine” value in test [2] (Table 2) and in test [2] (Table 3) was “—” each time. In addition, the “Aminoacylation activity, Tyrosine” value in test [3] (Table 2) and in test [4] was “***” in each case.

B2: VN: E. coli TyrRS double variant: position 37 Valine, position 195 Asparagine (protein, UniProt P0AGJ9 2-424, looked up, variant Y37V Q195N)
Tyrosine--tRNA ligase: ASSNLIKQLQERGLVAQVTDEEALAERLAQGPIALVCGFDPTADSLHLGHLVPLLCLKRFQQAGHKPVALVGGATGLIGDPSFKAAERKLNTEETVQEWVDKIRKQVAPFLDFDCGENSAIAANNYDWFGNMNVLTFLRDIGKHFSVNQMINKEAVKQRLNREDQGISFTEFSYNLLQGYDFACLNKQYGVVLNIGGSDQWGNITSGIDLTRRLHQNQVFGLTVPLITKADGTKFGKTEGGAVWLDPKKTSPYKFYQFWINTADADVYRFLKFFTFMSIEEINALEEEDKNSGKAPRAQYVLAEQVTRLVHGEEGLQAAKRITECLFSGSLSALSEADFEQLAQDGVPMVEMEKGADLMQALVDSELQPSRGQARKTIASNAITINGEKQSDPEYFFKEEDRLFGRFTLLRRGKKNYCLICWK
For the molecule B2, in test [5], the “Aminoacylation activity, 3-iodotyrosine” value was “**”. In test [1], the “relative tyrosine analogue to tyrosine ratio” value is on record as “inferior to VC”; the “Initial velocity … 3-iodotyrosine” value came to 6.9 nM PPi/min/nM enzyme; the “Initial velocity of release of pyrophosphates, Tyrosine” value came to 2.1 nM PPi/min/nM enzyme. Moreover, the “Aminoacylation activity, Tyrosine” value in test [3] (Table 3) is listed as “—”.

B3: IA: E. coli TyrRS double variant: position 37 Isoleucine, position 195 Alanine (protein, UniProt P0AGJ9 2-424, looked up, variant Y37I Q195A)
Tyrosine--tRNA ligase: B2 Tyrosine--tRNA ligase with V36I, N194A
B3: the “Aminoacylation activity, 3-iodotyrosine” value in test [5] is “*”. Further, the “Aminoacylation activity, Tyrosine” value in test [4] is recorded as “*”.

B4: 37V: E. coli TyrRS variant: position 37 Valine, position 195 Glutamine (protein, UniProt P0AGJ9 2-424, looked up, variant Y37V)
Tyrosine--tRNA ligase: B2 Tyrosine--tRNA ligase with N194Q
In the case of B4, the “Aminoacylation activity, 3-iodotyrosine” value in test [5] and in test [2] (Table 2) was “***” in each case. In addition, the “Initial velocity … 3-iodotyrosine” value in test [1] is 73 nM PPi/min/nM enzyme. For the same molecule, the “Initial velocity of release of pyrophosphates, Tyrosine” value in test [1] is reported as 140 nM PPi/min/nM enzyme. Further, the “Aminoacylation activity, Tyrosine” value in test [3] (Table 2) and in test [4] was “***” each time.

B5: VA: E. coli TyrRS double variant: position 37 Valine, position 195 Alanine (protein, UniProt P0AGJ9 2-424, looked up, variant Y37V Q195A)
Tyrosine--tRNA ligase: B2 Tyrosine--tRNA ligase with N194A
Regarding B5, the “Aminoacylation activity, 3-iodotyrosine” value in test [5] is listed as “**”. Besides, in test [1], the “Initial velocity … 3-iodotyrosine” value is recorded as 6.6 nM PPi/min/nM enzyme and the “Initial velocity of release of pyrophosphates, Tyrosine” value is 3.7 nM PPi/min/nM enzyme. Besides, the “Aminoacylation activity, Tyrosine” value in test [4] is listed as “*”.

B6: LC: E. coli TyrRS double variant: position 37 Leucine, position 195 Cysteine (protein, UniProt P0AGJ9 2-424, looked up, variant Y37L Q195C)
Tyrosine--tRNA ligase: B2 Tyrosine--tRNA ligase with V36L, N194C
As for B6, the “Aminoacylation activity, 3-iodotyrosine” value in test [5] is listed as “*”. In addition, in test [4], the “Aminoacylation activity, Tyrosine” value is given as “*”.

B7: AC: E. coli TyrRS double variant: position 37 Alanine, position 195 Cysteine (protein, UniProt P0AGJ9 2-424, looked up, variant Y37A Q195C)
Tyrosine--tRNA ligase: B2 Tyrosine--tRNA ligase with V36A, N194C
With B7, the “Aminoacylation activity, 3-iodotyrosine” value in test [5] was “**”. In test [1], the “relative tyrosine analogue to tyrosine ratio” value is given as “inferior to VC”; the “Initial velocity … 3-iodotyrosine” value stood at 3.1 nM PPi/min/nM enzyme; the “Initial velocity of release of pyrophosphates, Tyrosine” value stood at 1.0 nM PPi/min/nM enzyme. Also, in test [4], the “Aminoacylation activity, Tyrosine” value is “*”.

B8: AS: E. coli TyrRS double variant: position 37 Alanine, position 195 Serine (protein, UniProt P0AGJ9 2-424, looked up, variant Y37A Q195S)
Tyrosine--tRNA ligase: B2 Tyrosine--tRNA ligase with V36A, N194S
On to B8, for which the “Aminoacylation activity, 3-iodotyrosine” value in test [5] is on record as “*”. The “Aminoacylation activity, Tyrosine” value in test [4] is recorded as “*”.

B9: VS: E. coli TyrRS double variant: position 37 Valine, position 195 Serine (protein, UniProt P0AGJ9 2-424, looked up, variant Y37V Q195S)
Tyrosine--tRNA ligase: B2 Tyrosine--tRNA ligase with N194S
With B9, the “Aminoacylation activity, 3-iodotyrosine” value in test [5] is reported as “**”. Further, in test [1], the “relative tyrosine analogue to tyrosine ratio” value is “inferior to VC”; the “Initial velocity … 3-iodotyrosine” value is listed as 18 nM PPi/min/nM enzyme; the “Initial velocity of release of pyrophosphates, Tyrosine” value was found to be 19 nM PPi/min/nM enzyme. Further, the “Aminoacylation activity, Tyrosine” value in test [4] is listed as “**”.

The record behind these values is patent publication US7393670B2, “Tyrosyl-tRNA synthetase variants” (Japan Science and Technology Agency, priority 2001, dated 2008).
